Legend:
[1] = target: recombinant purified multimeric HIV-1 CA tubes assembled from cross-linked CA hexamers (CA A14C/E45C) (HIV-1 (NL4-3))
[2] = target: recombinant purified multimeric HIV-1 CA tubes assembled from cross-linked CA hexamers (CA A14C/E45C) (HIV-1 (NL4-3)); experiment: co-sedimentation; 20 μL CA tubes (~1.4 μM) mixed with 80 μL clarified HEK293T whole-cell lysate (1.5 mg/mL) in CA binding buffer (10 mM Tris pH 7.4, 1.5 mM MgCl2, 10 mM KCl), 1 h at room temperature; 21,000 x g for 8 min at 4°C; NUP153C detected with anti-HA, signals normalized to input
[3] = target: recombinant purified multimeric HIV-1 CA tubes assembled from cross-linked CA hexamers (CA A14C/E45C) (HIV-1 (NL4-3)); experiment: cross-linking; disulfide cross-linking of purified CA A14C/E45C by dialysis in assembly buffer (25 mM Tris-Cl pH 8.0, 1 M NaCl) with falling β-ME at 4°C; hexamers assessed by SDS-PAGE, tubes by transmission electron microscopy

TRIM-NUP153C-HA G1413M (from UniProt Q0PF16 1-304; P49790 896-1475)
HIV-GFP transduction of HEK293T cells expressing TRIM-NUP153C, relative percentage of GFP-positive cells [1]: 61.7%

TRIM-NUP153C(human)-HA, wild type (from UniProt Q0PF16 1-304; P49790 896-1475)
percent detected in the pellet fraction with CA tubes [2]: 46%
HIV-GFP transduction of HEK293T cells expressing TRIM-NUP153C, GFP-positive cells relative to the no TRIM control (flow cytometry) [1]: 53%

TRIM-NUP153C-HA S1412M (from UniProt Q0PF16 1-304; P49790 896-1475)
HIV-GFP transduction of HEK293T cells expressing TRIM-NUP153C, relative percentage of GFP-positive cells [1]: 64.1%

recombinant purified multimeric HIV-1 CA tubes assembled from cross-linked CA hexamers (CA A14C/E45C) (natural protein)
stoichiometry N [3]: 6

TRIM-NUP153C-HA F1417Y (from UniProt Q0PF16 1-304; P49790 896-1475)
HIV-GFP transduction of HEK293T cells expressing TRIM-NUP153C, relative percentage of GFP-positive cells [1]: 77.9%

TRIM-NUP153C-HA T1416M (from UniProt Q0PF16 1-304; P49790 896-1475)
HIV-GFP transduction of HEK293T cells expressing TRIM-NUP153C, relative percentage of GFP-positive cells [1]: 86.8%

TRIM-NUP153C-HA S1412P (from UniProt Q0PF16 1-304; P49790 896-1475)
percent bound to CA tubes (cosedimented) [2]: 63%

TRIM-NUP153C-HA F1415M (from UniProt Q0PF16 1-304; P49790 896-1475)
HIV-GFP transduction of HEK293T cells expressing TRIM-NUP153C, relative percentage of GFP-positive cells [1]: 52%

TRIM-NUP153C-HA G1413W (from UniProt Q0PF16 1-304; P49790 896-1475)
percent bound to CA tubes (cosedimented) [2]: 59%

TRIM-NUP153C-HA V1414I (from UniProt Q0PF16 1-304; P49790 896-1475)
HIV-GFP transduction of HEK293T cells expressing TRIM-NUP153C, relative percentage of GFP-positive cells [1]: 63.9%

TRIM-NUP153C-HA P1411M (from UniProt Q0PF16 1-304; P49790 896-1475)
HIV-GFP transduction of HEK293T cells expressing TRIM-NUP153C, relative percentage of GFP-positive cells; restriction significantly different from wild type [1]: 67.9%

TRIM-NUP153C-HA G1418A (from UniProt Q0PF16 1-304; P49790 896-1475)
HIV-GFP transduction of HEK293T cells expressing TRIM-NUP153C, relative percentage of GFP-positive cells [1]: 79%

From PMC9599535
